Test results published in paper PMC11546984.

Key:
[1] = target: Crovalimab (human); experiment: SPR; Biacore T200, 37 °C, pH 7.4; antibodies captured by goat anti-human IgG (Fc) on a CM4 chip (50-80 RU); recombinant human C5 as analyte, three-fold dilutions from 27 nM; 20 mM ACES, 150 mM NaCl, 1.2 mM CaCl2, 0.05% Tween 20, 0.005% NaN3; 1:1 binding model
[2] = target: Crovalimab (human); experiment: SPR; Biacore T200, 37 °C, pH 5.8; antibodies captured by goat anti-human IgG (Fc) on a CM4 chip (50-80 RU); recombinant human C5 as analyte, three-fold dilutions from 135 nM; 20 mM ACES, 150 mM NaCl, 1.2 mM CaCl2, 0.05% Tween 20, 0.005% NaN3; 1:1 binding model

Sequence of Crovalimab (human) (light, as listed by the source, chain 2 of 2, other chains not shown): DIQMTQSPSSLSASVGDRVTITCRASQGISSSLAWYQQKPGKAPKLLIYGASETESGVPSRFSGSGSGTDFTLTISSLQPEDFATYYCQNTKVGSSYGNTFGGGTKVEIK

## Recombinant human C5 (natural protein)
[1]
  Kd: 0.166 nM
  koff: 0.000123 s⁻¹
  kon: 741000 M⁻¹ s⁻¹
[2]
  Kd: 132 nM
  koff: 0.0164 s⁻¹
  kon: 125000 M⁻¹ s⁻¹
